The results in this text go back to patent US20190376079A1 (WHITEHEAD INSTITUTE FOR BIOMEDICAL RESEARCH, published 2019).

The target in this assay is SBP-tagged EF2 purified from WDR85 deficient (WDR85GT) cells (human, UniProt P13639 1-858). The assay can be described thus: co-purification with SBP-tagged EF2 on streptavidin sepharose from WDR85GT cells; silver stain, mass spectrometry, immunoblot. A general note: A western blot detects proteins with antibodies after separation by electrophoresis.

Source text: Proteins were separated using SDS-PAGE gel electrophoreses and visualized using silverstaining. For mass spectrometry, the EF2 band was purified from gel and digested using trypsin.

B1: DPH5 (enzyme)
chain: MLYLIGLGLGDAKDITVKGLEVVRRCSRVYLEAYTSVLTVGKEALEEFYGRKLVVADREEVEQEADNILKDADISDVAFLVVGDPFGATTHSDLVLRATKLGIPYRVIHNASIMNAVGCCGLQLYKFGETVSIVFWTDTWRPESFFDKVKKNRQNGMHTLCLLDIKVKEQSLENLIKGRKIYEPPRYMSVNQAAQQLLEIVQNQRIRGEEPAVTEETLCVGLARVGADDQKIAAGTLRQMCTVDLGEPLHSLIITGGSIHPMEMEMLSLFSIPENSSESQSINGL
notes: also called methyltransferase DPH5
For the molecule B1, the binding result is on record as “binds”.
